Columns and labels:
[1] = target: soluble human DPP4 (sDPP4) receptor (human) (UniProt P27487); assay: ELISA, RBD-Fc coated at 1 µg/ml, sDPP4 serially diluted
[2] = target: bat ACE2 (bACE2) receptor transiently expressed on 293T cells (bat)

soluble human DPP4 (sDPP4) receptor (human), sequence (P27487 39-766 limits assumed): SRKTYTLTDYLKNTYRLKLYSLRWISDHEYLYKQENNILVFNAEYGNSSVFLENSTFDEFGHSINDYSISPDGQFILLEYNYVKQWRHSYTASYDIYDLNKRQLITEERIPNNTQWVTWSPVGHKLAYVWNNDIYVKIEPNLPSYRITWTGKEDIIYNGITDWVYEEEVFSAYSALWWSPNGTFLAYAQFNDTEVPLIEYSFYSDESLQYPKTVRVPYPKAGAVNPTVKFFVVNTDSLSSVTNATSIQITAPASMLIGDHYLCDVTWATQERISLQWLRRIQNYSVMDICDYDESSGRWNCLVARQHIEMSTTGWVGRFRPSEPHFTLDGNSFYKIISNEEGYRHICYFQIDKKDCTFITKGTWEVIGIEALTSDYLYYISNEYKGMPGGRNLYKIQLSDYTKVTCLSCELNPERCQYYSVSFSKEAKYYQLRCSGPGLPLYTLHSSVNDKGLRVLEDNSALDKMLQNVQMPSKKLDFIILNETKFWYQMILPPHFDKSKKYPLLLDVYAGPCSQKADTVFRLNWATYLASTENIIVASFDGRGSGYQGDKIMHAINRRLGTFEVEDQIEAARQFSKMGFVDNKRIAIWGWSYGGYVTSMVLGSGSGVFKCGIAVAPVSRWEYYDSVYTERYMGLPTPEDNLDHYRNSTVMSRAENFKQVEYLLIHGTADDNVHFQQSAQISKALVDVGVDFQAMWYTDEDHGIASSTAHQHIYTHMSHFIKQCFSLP

With “MERS-CoV RBD-Fc fusion protein (residues 377-588 of MERS-CoV S protein with a C-terminal hFc) (from UniProt K9N5Q8 377-588)” the EC50 [1] was 0.92 µg/mL.

In the case of “SARS-CoV RBD-Fc fusion protein (residues 318-510 of SARS-CoV S protein with a C-terminal hFc) (from UniProt P59594 318-510)”, the EC50 [2] is reported as 0.96 µg/mL.

Reference: patent US20230346916A1
